According to publication PMC6159515:

Biological target: CglEndoMS-ΔCter, His-tagged (lacks the five carboxy-terminal residues of CglEndoMS) (Corynebacterium glutamicum ATCC 13032)
Test: SEC

CglEndoMS-ΔCter, His-tagged (lacks the five carboxy-terminal residues of CglEndoMS) (domain or fragment)
stoichiometry N: 2
